The subject of series [1] is NC[C@H](O)P(=O)(O)O. Briefly: purified protein. Particulars: TEA-HCl pH 8.0, 25 °C, 5 mM MgCl2, 5 μM PLP, 0.07% BSA, 1,2-elimination.
In series [2] the target is PhnX (Vibrio splendidus, UniProt A0ABV4LR11). Briefly: 1H NMR, disappearance of PAA. Particulars: PAA generated in situ by PhnW or PbfA; 50 mM potassium phosphate pH 8.0, 100 mM KCl, 5 mM MgCl2, 25 °C. In kind it is biochemical.

On to PbfA (Vibrio splendidus 12B01), for which, in series [1], the Km turned out to be 430 ± 60 µM and the kcat is 5.3 ± 0.3 s^–1.
Regarding `O=CCP(=O)(O)O` [PAA], the “1H NMR, disappearance of PAA” value in series [2] is “Addition of PhnX (blue) led to disappearance of PAA”.

In general, Km refers to the concentration of substrate that gives half-maximal velocity.
